Data: the nanobody polyreactivity screen of Harvey et al. (2022)

Test: yeast display, Sf9 membrane polyspecificity reagent, FACS + sequencing; frameworks hold sequencing errors
Method in brief: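 Sorting gates, low and high (top ~1%), were placed on anti-HA fluorescence to track expression and on streptavidin fluorescence to track reagent binding. A clone's polyreactivity label is taken from the gate it came out of. The reagent was 10% biotinylated, detergent-solubilized Sf9 membrane, applied for 1 hour at 4 °C to galactose-induced yeast display cells.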

| Sequence | polyreactivity (PSR sort gate) |
| --- | --- |
| QVQLVESGGGLVQAGGSLRLSCAASGSIFDSYAMGWSRQAPGKERELVAAISSGGSTNYADSVKGRFTISRDNEKNTVILQMYSLKTEDTAVYFCAADGSLDAYNYWGQGTQVSVSS | low polyreactivity |
| QVQLVESGGGLVQAGGSLRLICAASGRIFKWYVMGWYRQAPGKERELVAAISRSGDSTNYADSVKGRFTISRDNAKNTVYLQMNSLKPEDTAVYYCAVGYRYLKWVDYWGQGTQVTVSS | high polyreactivity |
| QVQLVESGGGLVQAGGSLRLSCAASGSTFPKYAMGWYRQAPGKERELVAGISWRGGRTYYADSVKGRFTISRDNAKNTVYLQMNSLKPEDTAVYYCATDYYAFNQGEVKWYDYWGQGTQVSVSS | high polyreactivity |
| QVQLVESGGGLVKEGGSLRLSCAASGRIFGPYAMGWYRQAPGKERELVAVITNSGSTNYADSVKGRFTISRDNAKNSVYLQMNCLKPEDTAVYYCNRFEGGAYGSNFDYWGQGTQVTVSS | high polyreactivity |
| QVQLVESGGGLVQAGCSLRLSCAASGFTFPIYAMGWYRQAPGKEREFVAAITASGDNTYYADSVKGRFTISRDNAKNTVYLQINSLKPEDTAVYYCAADWFVDWWEYDYWGQGTQVTVSS | low polyreactivity |
| QVQLVESGGGLVQAGGSLRISCAASGSTFYRNAMGWYRQAPGKEREFVAAISFRGGGTYADSVKGRFTISRDNAKNTVYLQMNSLKPEDTAVYYCAADHLSYRRRYEYWGQGTQVTVSS | low polyreactivity |
| QVQLVESGGGLVQAGCSLRLSCAACGSIFRAYAMGWYRQAPGKERELVADISRSGGSTYYADSVKGRFTISRDNAKNTVYLQMNSLKPEDTAFYYCAASYLGGQWRALGYDYWGQGTQVTVSS | low polyreactivity |
| QVQLVESGGGLVQAGGSLRLSCAASGFIFLGYAMGWYRQAPGKEREFVAGITITGGSTYYADSVKGRFTISRDNAKNTVYLQMNSLKPEDTAVYYCNAESNLYRRRRNYWGQGTQVTVSS | low polyreactivity |
| QVQLVESGGGLVQAGGSLRLSCAASGSTLRYYAMGSYRQAPGKERELVAAISTGGSTYYADSVKGRFTISRDNAKNTVYLQMNSLKPEDTAVYYSAADGYAHVWDYAYDYWGQGTQVTVSS | low polyreactivity |
| QVQLVESGGGLVQAGGSLRLSCAASGFTFYIYAMGWYRQAPGKERELVAAITGSGGRTYYADSVKGRFTISRDTAKNTVYLQMNSLKPEDTAVYYCAADKYRRGLAGAVARVNYWGQGTQVTVSS | high polyreactivity |
| QVQLVESGGGLVQAGGSLRLSCAASGRIFGYYAMGWYRQAPGKERELVAAISSSGGSTYYADSVKGRFTISRDNAKNTVYLQMNSLKPEDTAVYYCAAGGPRVNGYGRAYDYWGQGTQVTVSS | high polyreactivity |
| QVQLVESGGGLVQAGGSLRLSCAASGSNFSPNAMGWYRQAPGKERELVAAIDTRDGTTYYADSVKGRFTISRDNAKNTVYLQMNSLKPEDTAVYYCAAGGPVRYGIATPTGAKRFGYWGQGTQVTVSS | low polyreactivity |
| QVQLVESGGGLVQAGGSLRLSCAASGSTSAAYAMGWYRQAPGKERELVAAISKRGGSTYYADSVKGRFTISRDNAKNTVYLQMNSLKPEDTAVYYCNKYHFPGYWSRFDYWGQGTQVTVSS | high polyreactivity |
| QVQLVESGGGLVQAGGSLRLSCAASGRIFLINAMGWYRQAPGKERELVAAITVSGTRTYYADSVKGRFTISRDNAKNNVYLQMNSLKPEDTAVYYCAAKLQYRWTCGYYYWGQGTQVTVSS | high polyreactivity |
| QVQLVESGGGLVLAGGSLRLSCAASGSIFPLYAMGWYRQAPGKERELVAAITGTSSTYADSVKGRFTISRDNAKNTVYLQMNSLKPEDTAVYYCARVGWSWPRREKYNYWGQGTQVTVSS | high polyreactivity |
| QVQLVESGGGLVQAAGSLRLSCAASGRTFYDNAMGWYRQAPGKERELVAAITKSGGRTYYVDSVKGRFTISRDNAKNTVYLQMNSLKPEDTAVYYCAASWPNYLYEYWGQGTQVTVSS | high polyreactivity |
| QVQLVDSGGGLVQAGGSLRLTCAASGRIFYYNPMGWNRQAPGIVRELVDAINMISGSTYYADSVKGRFTISRDNAKNSVYFQMNSLKPEDTAVYYCAAQGVDTRIFFSFGFDYWGQGTQVNVSS | high polyreactivity |
| QVQLVESGGGLVQAGGSLRLSCAASGFTFDYYTMGWSRQAPGKERELVAAISWSGGSTYYADSVKGRFTISRDNAKNTVYLQMNSLKPEDTAVYYCAVDGPKTDDIENYWGQGTQVTVSS | low polyreactivity |
| QVQLVESGGGLVQAGGSIRLSCAPSGRTFRYYAMGWYRQAPGKERELVAAISRSGGSTYYADSVKGRFTISRDNAKNTVYLQMNSLKPEVTAVYYCADRYYVPWFGPSKYTPYDYWGQGIQVTVSS | high polyreactivity |
| QDQLVESGGGLFQAGGSLRLSCSASGSIFQYYTMGWYRQAPGKERELVAAIKSGGRTNYADSVKGRFTISRDNAKNTVYLQMNSLKPEDTAVYYCAKRLSTRASFGEEDSWGQGTQVTVSS | low polyreactivity |
| QVQLVESGGGLVQAGGSLRLSCAASGSIFQKYAMGWYRQAPGKDRELVAAISWDGGRTYYADSVKGRFTISRDNAKNTVYLQMNSLKPEDTAVYYCYWYDYWGHGTQVTVSS | high polyreactivity |
| QVQLVESGGGLVQAGGSLRLICAASGRIFWYYAMGWYRQAPGKERELVASITSGGRTKYADSVKGRFTISRDNAKNTVYLQMNSLKPEDTAVYYCAARLLIDYHADWWVAYDYWGQGTQVTVSS | low polyreactivity |

| Sequence | polyreactivity (PSR sort gate) |
| --- | --- |
| QVQLVESGGGLVQAGGSLRLSCAASGPTFPFNAMGWYRQAPGKERELVAAISWRDGRTYYADSVKGRFTISRDNAKNTVYLQMNSLKPEDTAVYYCNVVKRRSDWGMDYWGQGTQVTVSS | high polyreactivity |
| QVQLVESGGGLVQAGGSLRLSCADSGRIFRGNTMGWYRQAPGKERELVATINGRGGSTYYADSVKGRFTISRDNAKNTLYLQMNSLKPEDTAVYYCAARARTTRSATYDYWGQGTQVTVSS | high polyreactivity |
| QVQLVESGGGLVQAGGSLRLSCAASGSTFGSNAMGWYRQAPGKERELVAAISSIGGSTYYADSVKGRFTISRDNAKNTVYLQMNSLKTEDTAVYYCAAKYYGRYYRYLGSSFDYWGQGTQVTVSS | high polyreactivity |
| QVQLVESGGGLVQAGGSLRLSCAASGFTVYSYPLGWYRQAPGKERELVAAITRSGGITYYADSVKGRFTISRDNAKNTVYLQMNSLKPEDTAVYYCNAYRGGLSSEHYYWGQGTQVTVSS | high polyreactivity |
| QVQLVESGGGLVQAGGSLRLSCAASGSIFAYYAMGWYRQAPGKERELVASISSVGTTKYADSVKGRFTISRDNAKNTVYLQMNSLKPEDTAVYYWATDGYSPAAFDYWGQGTQVTVSS | low polyreactivity |
| QVQLVESGGRLVQAGGRLRLSSAATGLIFYANAMGWYRQAPGKQREFVADISNSGGSTYYADSVKGRFTISRDNAKNTVYLQMNSLKPEDTAVYYCNRVAYKRGYGVRYGGDYDYSGQGTQVTVSS | low polyreactivity |
| QVQLVESGGGLVQAGGSLRLSCAASGLTFSYYAMGWYRQAPGKERELVAAISWSGGITYYADSVKGRFKISRDNAKNTVYLQMNSLKPEDTAVYYCAADGYPTLFDYWGQGTQVTVAS | high polyreactivity |
| QVQLVESGGGLVQAGGSLRLSCAASGRTFGFNVMGWYRQAPGKERELVAAISWSGGSTYYADSVKGRFTISRENAKNTVYLQMNSLKPEDTAVYSCNKRYVHRYGYWGQGTQVTVTS | low polyreactivity |
| QVQLVESGGGLVQAGGSLRLSCAASGFILYGNARGWYRQAPGKERELVAAISSSGRTNYADYVKGRFTISRDNAKNTVYLQMNRLKPEDTAVYYCADYVRAGYGMGYWGQGTQVTVSS | low polyreactivity |
| QVQLVESGGGLVQAGGSLRLSCAASGFIFRFNAMGWYRQAPGKERELVAGITWSGGSTYYADSVKGRFTISRDNAKNTVYLQMNSLKPEDTAVYYCAADNPYLGRKFDYWGQGTQVTVSS | high polyreactivity |
| QVQLVESGGGLVQAGGSLRLSCAASGSTFCSYVMGWYRQAPGKERELVAAISSIGGSTYYADSVKGRFTISRDNAKNTVYLQMNSLKPEDTAVYYCAAEPPGSPYEGGYWGQGTQVTVSS | low polyreactivity |
| QVQLVESGGGLVQAGGSLRLSCAASGRTFRRNAMGWYRQAPGKERELVAAIRWSSGSTYYADSVNGRFTISRDNAKNTVYLQMNSLKPEDTAVYYCAADGDWYGYIWQSDDGYDSWGQGTQVTVSS | low polyreactivity |
| QVQLVESGGALVQAGGSLRLSCAASGFIVDAYAMGWYRQAPGKERELVAALTRGNTYYADSVKGRFTISRDNAKNTVYLQMTSLKPEDTGVSCCAARSWQSYRSQVTHSSTLDYWGQGTQVTVSS | low polyreactivity |
| QVQLVESGGGLVQAGGSLRLSCAASGRIFTQNAMGWNRQAPGKERELVAAISYSGVSTYYADSVKGRFTISRDNAKNTVYLQMNSLKPEDTAVFYCARRYWYPDAFYRYDYWGLGTQVTVSS | low polyreactivity |
| QVQLVESGGGLVQAGGSLRLSCAASGSTIVVNAMGWSRQAPGKERELVASISWTTGSTYYADSVKGRFTISRDNAKNTVFLQMNSLKPEDTAVYYCAADILPRYSQFDYWGQGTQVTVSS | low polyreactivity |
| QVQLVESGGGLVQAGGSLRLSCAASGSSFSSYAMGRYRQAPAKERELVASNNIGGSTNYADSVKGRFTISRDNAKITVYLHMNSLKPEDTAVYSCNAVGYNVGGEGDYWGQGTQVTVSS | high polyreactivity |
| QVQLVESGGGLVQAGGSLRLSCAASGSTLIDNVMGWYRQAPGKERELVASITSSDGTTYADSVKGRFTISRDNAKNTVYLQMNSLKPEDTAVYYCAARPWYGTYNYWGQGTQVTVSS | low polyreactivity |
| QVQLVETGGGLVQAGGSLRLSCAASGSIFIYFAMGWYRQAPGKERELVAAIDRSGGNTYYADSVKGRFTLSRDYAKNTVYLQMNSLKPEDTAVYYCAALVHRRVQYDYWGQGTQVTVSS | high polyreactivity |
| QVQLVESGGGLVQAGGSLRLSCAASGSIFSYYAMAWYRQAPGKERELVAAITWSGTRTYYADSVKGRFTISRDNAKNTVYLQMNSLKPEDTAVYYCAADSSIRDDYWGQGTQVTVSS | low polyreactivity |
| QVQLVESGGGLVQAGGSLRLSCDASGITVAGYAMGWYRHAPGKEWELVAAISRGGSTYYADSVKGRFTISRDNAKNTVYLQMNSLKPEDTAVYYCNTDDQQGYFTYTGWNYNYWGQGTQVSVSS | high polyreactivity |
| QVQLVESGGGLVQAGGCLRKSCAASGFTFFSYARGWSRQAPGKERELVAGINSSGGSTNYADSVKGRFTISRDNAKNTVYLLMNSLKPEDTAVYYCNADLRSEYDYWGQGTQVTVSS | low polyreactivity |
